In general, pKd refers to −log10 of the Kd, conventionally taken in molar units. A higher pKd goes with a small Kd.

For one substance, Kd results are on record in article PMC2121097.

pKd: −log10 of the molar value. Where two headings read alike, the source gives them in different places.

The target in assay [1] is Dictyostelium actin filaments (F-actin) (Dictyostelium) (UniProt P07830). The assay can be described thus: steady-state actin critical concentration, sedimentation.
The target in assay [2] is Dictyostelium actin monomer (G-actin) (Dictyostelium) (UniProt P07830). The assay can be described thus: other fluorescence titration.
The target of assay [3] is Dictyostelium actin filaments (F-actin) (Dictyostelium) (UniProt P07830). The assay is described as follows: steady-state actin critical concentration, uncalibrated pyrene fluorescence.
Assay [4] shares this target. The assay can be described thus: steady-state actin critical concentration, calibrated pyrene fluorescence.
Assay [5] deals with Dictyostelium actin monomer (G-actin) (Dictyostelium) (UniProt P07830). The assay can be described thus: other fluorescence titration. The source holds these as a separate data set.
The target is the same in assay [6]. The assay is described as follows: other fluorescence titration. This is another data set of the same source.

Take “Dictyostelium elongation factor 1 alpha (EF1 alpha) (from UniProt P0CT31 1-453) (natural protein)”: the pKd in assay [1] was 6.40; in assay [2] it was 6.15; in assay [3], 6.04; in assay [4], 6.85; in assay [5], 5.41; in assay [6], 5.85.
